Measured values taken from the DeepSol protein solubility set.

test: soluble on expression in E. coli; label from the status in PepcDB or PDB records

Sequence	soluble on expression in E. coli
MAKVLVLNASYEPLNITSWQRAVVLLIKGKAEQVEHNGKMVYNNFPLPTVIRLRHYVVTPYKEIPLTRRNILHRDGHSCQYCGYTGDELTLDHVIPKSRGGGETWENIVTACVRCNVKKGNRTPKEANMPLRQTPRRPISSLYFEVTKHVRTGTHQEWRKYVIGALEHHHHHH	not soluble
MAKYQELVEQLKRQIKSGIWHPGDKLPSLRRQSEHSGLSLMTVLHAYQILESQGWVTSQPRSGYRVAPNIKSSNEPQAPAAVSWTEQVDINEFIFDVLQASKNPSMINFGFAYPDPSLYPRYHVNRAMSAAARNMPISTTFDNLPPGNEQLRTIIAKRYAAKGIEISPDEIVITAGALEALTLSLQACTRPGDWVVVESPAFYGALQSLERLGLKALSVRTDPVTGIDLDSLERALQTHDVKACWLMSNFQNPLGFTLSNEKKQKLIELTQRYNVPVIEDDVYSELHAENDSVYPLRMFDDTGNTMLCSSFSKSLIAGLRIGWVAAGKRALEVQKLQLMSTLATSAPVQMTLVHYLTSRNYESHLKQLRKKLFERKSKMTNLLNELLPEEVKVLSQSGGYFIWLELPKHIDALQIYREALKDNISIAPGKMFSLTEQYDHCIRLNASFELNDKYVHALNLLANIIRDHLAK	not soluble
MALEFTTLPQLYAHDYDTVIDVRSPAEFAEDHLPGAINLPVLDNEERARVGTIYKQQSPFLARKLGAALVFRNAASHVEQSLSHHEGHWRPLVYCWRGGQRSGSFTWMLQQIGWRAEVVSGGYRTYRRLVNRYLYEDPLPHRLVALDGFTGTAKTEILARLPALGVQMLDLEALANHRGSLLGARPGGQPEQKAFESALAAALCRLDPTRPVVVEAESSRIGERILPPSLWAALCAAPRIEIEAPVAARSAYLTAAYDDILSDAETLTARLDPLRYHRGHAVVEGWLALVAAGDKHGVTRALMEQHYDPAYRKSRASHAVQVAARLRSDTLDHAGIDTLTAQVAAVLKAL	not soluble
MALICELDEQWSYVGSKARLHWLWYAYNTKTGGVLAYTFGPRTDQTCRELLALLTPFNIGMLTSDDWDSYGRVVPKNKHLTGKIFTQRIERNNLTLRTHIKRLARKQSASHAQLRSTKK	not soluble
MALKDLFSGFFVVEEEDDELEAPPEENEQQERQQPKQQAQSQNQFTEQPRNVNSERPRSIQSVPKKQSTRLQQSSGERKYQMNNTTSKNNARNVVNMNNQEQENYDFTQESSKMCLFEPRVFSDTQDIADELKNRRATLVNLQRIDKVSAKRIIDFLSGTVYAIGGDIQRVGSDIFLCTPDNVEVAGSITDQIENMEYQGELEHHHHHH	not soluble
MALKLPIPHNILILNRNSALELLRALKEVPKLIITRIPPDEWPDVAYTEYIWLSRVEGPNSVSPTALHVIIERAKTFLDENSGGVIYVDGIEYIMLYEEFKSVAKFLLTLKDIAVVKEGHLILHVDPKTLEDHQMAVLEREFVKINVEETIEKIRGPTLFGALIEEKGLEHHHHHH	soluble
MALLPAVRRYGRLTRATGLVLEATGLQLPLGATCIIERQDGPETKEVESEVVGFNGQRLFLMPLEEVEGILPGARVYARNGHGDGLQSGKQLPLGPALLGRVLDGGGKPLDGLPAPDTLETGALITPPFNPLQRTPIEHVLDTGVRAINALLTVGRGQRMGLFAGSGVGKSVLLGMMARYTRADVIVVGLIGERGREVKDFIENILGPDGRARSVVIAAPADVSPLLRMQGAAYATRIAEDFRDRGQHVLLIMDSLTRYAMAQREIALAIGEPPATKGYPPSVFAKLPALVERAGNGIHGGGSITAFYTVLTEGDDQQDPIADSARAILDGHIVLSRRLAEAGHYPAIDIEASISRAMTALITEQHYARVRLFKQLLSSFQRNRDLVSVGAYAKGSDPMLDKAITLWPQLEAFLQQGIFERADWEDSLQALDLIFPTV	soluble
MALQSSVRAFKKPPRPLVDEVRFLRSWIEKPLHMGAVMPSGKLLARTMARYVDIQSDGPVIELGPGTGAITNALVEHGVDQKRLVLLEFDPGFCALLRERFPLAKVVQGDAYRLRDSLWDALEIPATAVVSGLPLVTKPMLTRMKLIRDAFTLLEPGAPFVQFTYSVAPPIPKSLPGVSTEGSERIWMNVPPARVWVYRKRLEHHHHHH	not soluble
MALRFITAEEAAEFVHHNDNVGFSGFTPAGNPKVVPAAIAKRAIAAHEKGNPFKIGMFTGASTGARLDGVLAQADAVKFRTPYQSNKDLRNLINNGSTSYFDLHLSTLAQDLRYGFYGKVDVAIIEVADVTEDGKILPTTGVGILPTICRLADRIIVELNDKHPKEIMGMHDLCEPLDPPARRELPVYTPSDRIGKPYVQVDPAKIVGVVRTSEPNDESDFAPLDPVTQAIGDNVAAFLVSEMKAGRIPKDFLPLQSGVGNVANAVLGALGDNPDIPAFNMYTEVIQDAVIALMKKGRIKFASGCSLSVSRSVIQDIYANLDFFKDKILLRPQEYSNNPEIVRRLGVITINTALEADIFGNINSTHVSGTRMMNGIGGSGDFTRNSYVSIFTTPSVMKDGKISSFVPMVAHHDHSEHSVKVIISEWGVADLRGKNPRERAHEIIDKCVHPDYRPLLRQYLELGVKGQTPQNLDCCFAFHQELAKSGDMRNVRWEDYMK	not soluble
MALRNVPFRSEVLGWDPDSLADYFKKLNYKDCEKAVKKYHIDGARFLNLTENDIQKFPKLRVPILSKLSQEINKNEERRSIFTRKPQVPRFPEETESHEEDNGGWSSFEEDDYESPNDDQDGEDDGDYESPNEEEEAPVEDDADYEPPPSNDEEALQNSILPAKPFPNSNSMYIDRPPSGKTPQQPPVPPQRPMAALPPPPAGRNHSPLPPPQTNHEEPSRSRNHKTAKLPAPSIDRSTKPPLDRSLAPFDREPFTLGKKPPFSDKPSIPAGRSLGEHLPKIQKPPLPPTTERHERSSPLPGKKPPVPKHGWGPDRRENDEDDVHQRPLPQPALLPMSSNTFPSRSTKPSPMNPLPSSHMPGAFSESNSSFPQSASLPPYFSQGPSNRPPIRAEGRNFPLPLPNKPRPPSPAEEENSLNEEWYVSYITRPEAEAALRKINQDGTFLVRDSSKKTTTNPYVLMVLYKDKVYNIQIRYQKESQVYLLGTGLRGKEDFLSVSDIIDYFRKMPLLLIDGKNRGSRYQCTLTHAAGYP	soluble
MALVNEHFLKLPGSYLFSDIAKKVNTFKITHPKQDIIRLGIGDVTQPLPKACIEAMHKAVEELASKDTFRGYGPEQGYDFLIEAIIKNDFAPRGIHFSPSEIFVNDGAKSDTGNIGDILRHDNSVGVTDPIYPVYIDSNVMCGRAGVLEEGTGKWSNVTYMPCTSENDFIPEIPDKRIDIVYLCYPNNPTGTTLTKPELKKWVDYALANDTLILFDAAYEAYIQDADVPHSIYEIKGAKKCAIEFRSFSKTAGFTGVRCGYTVVPKELTAATLEGDRIPLNKLWNRRQCTKFNGTSYITQRAAEAVYSTEGKAQIKETINYYMSNAKIMKEGLEATGLKVYGGVNAPYLWVKTPNGLSSWRFFEQMLYEANVVGTPGVGFGPSGEGYIRLTAFGDHNDCMEAMRRIKNWL	not soluble
MALWGGRFSQAADQRFKQFNDSLRFDYRLAEQDIIGSVAWSKALVTVGVLNADEQQQLEQALSVLLEEVQANPHAILASDAEDIHSWVETKLIDKVGDLGKKLHTGRSRNDQVATDLKLWCKFQITELQTAVQQLQQALVMTAEANQDAVMPGYTHLQRAQPVTFAHWCLAYVEMLSRDESRLQDTLKRLDVSPLGCGALAGTAYAIDREQLAGWLGFASATRNSLDSVSDRDHVLELLSDASIGMVHLSRFAEDLIFFNSGEAAFVDLSDRVTSGSSLMPQKKNPDALELIRGKCGRVQGALTGMTMTLKGLPLAYNKDMQEDKEGLFDALDTWLDCLHMAALVLDGIQVKRPRCKEAAEQGYANATELADYLVAKGVPFREAHHIVGEAVVEAIRQGKALEALALSDLQQFSSVIGDDVYPILALQSCLDKRVAKGGVSPQQVASAIAEAKARLF	not soluble
MALWVDKYRPKDLLGKDGVDYHIEQANHLKFLSADCMPHLLFCGPSGAGKKTRIKCLLRELYGVGVEKTQLIMKSFTSPSNKKLEIQTVSSNYHIEMTPSDVGIYDRVVVQDLVKEMAQTSQIESTSQRSFKVVVLCEADSLTRDAQHGLRRTMEKYANNCKIVLSCESLSRIIEPLQSRCIIINVPAPTDEDVTKVLRKVIERESFLLPENVLQKIVEKSEGNLRRAILMTEALRMENESGVAESVVIPVPEWEIYIQETARLILQKQSSDMLLKVRERLYELLSRCIPPTVIFKKLLEHLLPKCPPQIAREVVSEAAKFEHRLVLGQKAIFHLEGFVAAFMDIYLTNASKPK	not soluble
